Drawing on the Human Domainome abundance scans (Beltran et al. 2025), this text covers abundance fitness for 45 variants.

The chains are these.
B1: Neutrophil cytosol factor 2, residues 456 to 514; numbered along this chain, P19878 (parent)
chain: LKKGSQVEALFSYEATQPEDLEFQEGDIILVLSKVNEEWLEGECKGKVGIFPKVFVEDC

± gives the uncertainty stated by the source.

Variants of B1 are the subject of the data set. Kind of data set: abundance fitness (aPCA) (normalised: wild type 0, dead -1); higher = more abundant; growth selection in yeast, the domain comes from the species named. The note with it: Homo sapiens.
Turning to LKKGSQVEALFSYEATQPEDLEFQEGDIILVLSYVNEEWLEGECKGKVGIFPKVFVEDC [K34Y], the abundance fitness is -0.589 ± 0.15.
With LKKGSQVEALFSYEATQPEDLEFQEGDIILVLSKTNEEWLEGECKGKVGIFPKVFVEDC [V35T] the figure was -0.808 ± 0.2; with LKKGSQVEALFSYEATQPEDLEFQEGDIILVLSKQNEEWLEGECKGKVGIFPKVFVEDC [V35Q], -0.302 ± 0.32; with LKKGSQVEALFSYEATQPEDLEFQEGDIILVLSKWNEEWLEGECKGKVGIFPKVFVEDC [V35W], -0.019 ± 0.16.
Regarding LKKGSQVEALFSYEATQPEDLEFQEGDIILVLSKHNEEWLEGECKGKVGIFPKVFVEDC [V35H], the abundance fitness is -0.806 ± 0.23.
With LKKGSQVEALFSYEATQPEDLEFQEGDIILVLSKSNEEWLEGECKGKVGIFPKVFVEDC [V35S] the figure was -0.459 ± 0.1.
LKKGSQVEALFSYEATQPEDLEFQEGDIILVLSKFNEEWLEGECKGKVGIFPKVFVEDC [V35F]: the abundance fitness was -0.264 ± 0.12.
In the case of LKKGSQVEALFSYEATQPEDLEFQEGDIILVLSKRNEEWLEGECKGKVGIFPKVFVEDC [V35R], the abundance fitness is -0.235 ± 0.096.
With LKKGSQVEALFSYEATQPEDLEFQEGDIILVLSKLNEEWLEGECKGKVGIFPKVFVEDC [V35L] the figure was -0.096 ± 0.089; with LKKGSQVEALFSYEATQPEDLEFQEGDIILVLSKMNEEWLEGECKGKVGIFPKVFVEDC [V35M], -0.081 ± 0.24.
The value for LKKGSQVEALFSYEATQPEDLEFQEGDIILVLSKGNEEWLEGECKGKVGIFPKVFVEDC [V35G] was -0.613 ± 0.11; that for LKKGSQVEALFSYEATQPEDLEFQEGDIILVLSKYNEEWLEGECKGKVGIFPKVFVEDC [V35Y] was -0.69 ± 0.17.
The value for LKKGSQVEALFSYEATQPEDLEFQEGDIILVLSKKNEEWLEGECKGKVGIFPKVFVEDC [V35K] was -0.045 ± 0.23.
With LKKGSQVEALFSYEATQPEDLEFQEGDIILVLSKENEEWLEGECKGKVGIFPKVFVEDC [V35E], the abundance fitness was -1.04 ± 0.48.
The value for LKKGSQVEALFSYEATQPEDLEFQEGDIILVLSKDNEEWLEGECKGKVGIFPKVFVEDC [V35D] was -0.588 ± 0.17.
With LKKGSQVEALFSYEATQPEDLEFQEGDIILVLSKANEEWLEGECKGKVGIFPKVFVEDC [V35A] the figure was -0.074 ± 0.1; with LKKGSQVEALFSYEATQPEDLEFQEGDIILVLSKNNEEWLEGECKGKVGIFPKVFVEDC [V35N], -0.517 ± 0.15.
The value for LKKGSQVEALFSYEATQPEDLEFQEGDIILVLSKCNEEWLEGECKGKVGIFPKVFVEDC [V35C] was -0.475 ± 0.13; that for LKKGSQVEALFSYEATQPEDLEFQEGDIILVLSKVNLEWLEGECKGKVGIFPKVFVEDC [E37L] was -0.645 ± 0.15.
In the case of LKKGSQVEALFSYEATQPEDLEFQEGDIILVLSKVNAEWLEGECKGKVGIFPKVFVEDC [E37A], the abundance fitness is -0.42 ± 0.14.
For LKKGSQVEALFSYEATQPEDLEFQEGDIILVLSKVNIEWLEGECKGKVGIFPKVFVEDC [E37I], the abundance fitness is -0.445 ± 0.17.
With LKKGSQVEALFSYEATQPEDLEFQEGDIILVLSKVNNEWLEGECKGKVGIFPKVFVEDC [E37N] the figure was 0.241 ± 0.13; with LKKGSQVEALFSYEATQPEDLEFQEGDIILVLSKVNCEWLEGECKGKVGIFPKVFVEDC [E37C], -0.109 ± 0.15.
On to LKKGSQVEALFSYEATQPEDLEFQEGDIILVLSKVNMEWLEGECKGKVGIFPKVFVEDC [E37M], for which the abundance fitness is -0.506 ± 0.22.
With LKKGSQVEALFSYEATQPEDLEFQEGDIILVLSKVNHEWLEGECKGKVGIFPKVFVEDC [E37H] the figure was -0.328 ± 0.14; with LKKGSQVEALFSYEATQPEDLEFQEGDIILVLSKVNGEWLEGECKGKVGIFPKVFVEDC [E37G], -0.277 ± 0.12.
With LKKGSQVEALFSYEATQPEDLEFQEGDIILVLSKVNFEWLEGECKGKVGIFPKVFVEDC [E37F] the figure was -0.697 ± 0.2.
Consider LKKGSQVEALFSYEATQPEDLEFQEGDIILVLSKVNDEWLEGECKGKVGIFPKVFVEDC [E37D], for which the abundance fitness is 0.069 ± 0.12.
The value for LKKGSQVEALFSYEATQPEDLEFQEGDIILVLSKVNPEWLEGECKGKVGIFPKVFVEDC [E37P] was -0.903 ± 0.27; that for LKKGSQVEALFSYEATQPEDLEFQEGDIILVLSKVPEEWLEGECKGKVGIFPKVFVEDC [N36P] was -1.03 ± 0.29.
In the case of LKKGSQVEALFSYEATQPEDLEFQEGDIILVLSKVKEEWLEGECKGKVGIFPKVFVEDC [N36K], the abundance fitness was determined as 0.093 ± 0.23.
Regarding LKKGSQVEALFSYEATQPEDLEFQEGDIILVLSKVSEEWLEGECKGKVGIFPKVFVEDC [N36S], the abundance fitness was -0.586 ± 0.11.
In the case of LKKGSQVEALFSYEATQPEDLEFQEGDIILVLSKVHEEWLEGECKGKVGIFPKVFVEDC [N36H], the abundance fitness was -0.276 ± 0.13.
In the case of LKKGSQVEALFSYEATQPEDLEFQEGDIILVLSKVGEEWLEGECKGKVGIFPKVFVEDC [N36G], the abundance fitness is -0.103 ± 0.094.
As for LKKGSQVEALFSYEATQPEDLEFQEGDIILVLSKVCEEWLEGECKGKVGIFPKVFVEDC [N36C], the abundance fitness is -0.761 ± 0.15.
The value for LKKGSQVEALFSYEATQPEDLEFQEGDIILVLSKVVEEWLEGECKGKVGIFPKVFVEDC [N36V] was -0.686 ± 0.18.
LKKGSQVEALFSYEATQPEDLEFQEGDIILVLSKVTEEWLEGECKGKVGIFPKVFVEDC [N36T]: the abundance fitness was -0.867 ± 0.22.
On to LKKGSQVEALFSYEATQPEDLEFQEGDIILVLSKVWEEWLEGECKGKVGIFPKVFVEDC [N36W], for which the abundance fitness is -0.712 ± 0.27.
The value for LKKGSQVEALFSYEATQPEDLEFQEGDIILVLSKVMEEWLEGECKGKVGIFPKVFVEDC [N36M] was -0.43 ± 0.28; that for LKKGSQVEALFSYEATQPEDLEFQEGDIILVLSKVDEEWLEGECKGKVGIFPKVFVEDC [N36D] was -0.477 ± 0.17.
With LKKGSQVEALFSYEATQPEDLEFQEGDIILVLSKVYEEWLEGECKGKVGIFPKVFVEDC [N36Y] the figure was -0.754 ± 0.2; with LKKGSQVEALFSYEATQPEDLEFQEGDIILVLSKVLEEWLEGECKGKVGIFPKVFVEDC [N36L], -0.968 ± 0.2.
The value for LKKGSQVEALFSYEATQPEDLEFQEGDIILVLSKVFEEWLEGECKGKVGIFPKVFVEDC [N36F] was -0.446 ± 0.11; that for LKKGSQVEALFSYEATQPEDLEFQEGDIILVLSKVREEWLEGECKGKVGIFPKVFVEDC [N36R] was -0.963 ± 0.19; that for LKKGSQVEALFSYEATQPEDLEFQEGDIILVLSKVAEEWLEGECKGKVGIFPKVFVEDC [N36A] was -0.063 ± 0.14.
